Measured values: IntAct's records for PubMed 21444796

B1: Natural cytotoxicity triggering receptor 3 (Homo sapiens), O14931 (parent)
chain: MAWMLLLILIMVHPGSCALWVSQPPEIRTLEGSSAFLPCSFNASQGRLAIGSVTWFRDEVVPGKEVRNGTPEFRGRLAPLASSRFLHDHQAELHIRDVRGHDASIYVCRVEVLGLGVGTGNGTRLVVEKEHPQLGAGTVLLLRAGFYAVSFLSVAVGSTVYYQGKCLTWKGPRRQLPAVVPAPLPPPCGSSAHLLPPVPGG
partner: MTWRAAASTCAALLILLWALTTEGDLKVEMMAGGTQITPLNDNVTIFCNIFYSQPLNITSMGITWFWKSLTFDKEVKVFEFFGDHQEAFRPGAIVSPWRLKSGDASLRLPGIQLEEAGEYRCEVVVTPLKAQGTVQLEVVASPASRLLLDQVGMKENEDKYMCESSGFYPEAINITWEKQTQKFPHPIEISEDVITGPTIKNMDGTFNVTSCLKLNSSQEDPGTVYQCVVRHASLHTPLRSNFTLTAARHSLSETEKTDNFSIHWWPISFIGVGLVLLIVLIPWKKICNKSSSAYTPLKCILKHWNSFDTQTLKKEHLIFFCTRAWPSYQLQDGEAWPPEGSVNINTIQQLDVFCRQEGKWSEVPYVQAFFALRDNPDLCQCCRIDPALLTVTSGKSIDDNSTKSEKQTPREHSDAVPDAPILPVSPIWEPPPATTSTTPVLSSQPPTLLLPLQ

Variants of: B1
Conditions: with nr3l1_human NCR3LG1, Q68D85
In the case of R109E;E111R;L113A, the “effect of a mutation on the interaction” value is reported as “decreasing interaction strength”.
With I50A;S52A the “effect of a mutation on the interaction” value was “decreasing interaction strength”.
In the case of E65S;R67S, the “effect of a mutation on the interaction” value is reported as “decreasing interaction strength”.
For R109S;E111S;L113A, the “effect of a mutation on the interaction” value was “decreasing interaction strength”.
